The labels stand for the following.
B1: Transferrin Recpt. 680-696 (peptide)
peptide: RVEYHFLSPYVSPKESP
B2: Na+/K+ ATPase 199-216 (peptide)
peptide: IPADLRIISANGCKVDNS
B3: Pseudo HLA-A2 103-117 (peptide)
peptide: VGSDWRFLRGYHQYA
B4: Invariant Chain (Ii) 107-121 (peptide)
peptide: KMRMATPLLMQALPM
B5: Bovine Fetuin 56-72 (peptide)
peptide: YKHTLNQIDSVKVWPRR
B6: β2m 52-64 (peptide)
peptide: SDLSFSKDWSFYL
B7: Ii 97-111 (peptide)
peptide: LPKPPKPVSKMRMAT

The target of the test is 'Empty' HLA-DR1 purified from insect cells expressing recombinant DR1 cDNA (human).
For B1, the inhibition constant Ki (usually the dissociation constant of the complex between target and ligand, obtained from inhibition or displacement) is < 10 nM. For the molecule B2, the Ki was 68 nM.

B3: the Ki is 49 nM. Regarding B4, the Ki was < 10 nM. Turning to B5, the Ki was 66 nM. Next, B6: > 10000 nM; B7: > 10000 nM.
